± gives the uncertainty stated by the source.

A short description of this series: self-splicing fitness, log relative to wild type (ln ratio); higher = more splicing; Tetrahymena group I intron in knt gene, E. coli kanamycin selection, DiMSum; sequences stand for … in CUCUCU…GGAGGGAAAAGUUAUCAGGCAUGCACCUGGUAGCUAGUCUUUAAACCAAUAGAUUGCAUCGGUUUAAAAGGCAAGACCGUCAAAUUGCGGGAAAGGGGUCAACAGCCGUUCAGUACCAAGUCUCAGGGGAAACUUUGAGAUGGCCUUGCAAAGGGUAUGGUAAUAAGCUGACGGACAUGGUCCUAACCACGCAGCCAAGUCCUAAGUCAACAGAUCUUCUGUUGAUAUGGAUGCAGUUCACAGACUAAAUGUCGGUCGGGGAAGAUGUAUUCUUCUCAUAAGAUAUAGUCGGACCUCUCCUUAAUGGGAGCUAGCGGAUGAAGUGAUGCAACACUGGAGCCGCUGGGAACUAAUUUGUAUGCGAAAGUAUAUUGAUUAGUUUUGGAGUACUCGUGGUCG
The gist of the method:
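Library with all eight P1ex-region intron nucleotides randomised, intron inside the knt kanamycin-resistance gene on pET-22b(+), in E. coli BL21(DE3). Cells grew overnight at 37°C or 30°C on LB agar with or without 25 μg/mL kanamycin (plus 100 μg/mL carbenicillin, 50 μM IPTG, 0.2% rhamnose), in six replicate transformations. Pooled colonies were amplicon-sequenced on Illumina HiSeq 2500. DiMSum fitness is the error-weighted combination of wild-type-normalised replicate fold changes, kanamycin versus none.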

On to AACAAGCAAUAUUACGUGGC, for which the “self-splicing fitness (ln)” value is, setting by setting: (30 °C) -3.61 ± 0.18; (37 °C) -2.52 ± 0.14.

For CCUUAGCAAUAUUACGGGCA, the “self-splicing fitness (ln)” value is, setting by setting: (30 °C) -3.91 ± 0.33; (37 °C) -3.36 ± 0.35.

As for CGUCAGCAAUAUUACGUGUU, the “self-splicing fitness (ln)” value was -3.17 ± 0.11 (30 °C) and -0.86 ± 0.099 (37 °C).

With UGCAAGCAAUAUUACGGCUU, under “37 °C”, the “self-splicing fitness (ln)” value is -1.72 ± 0.28.

With UGUCAGCAAUAUUACGCCUC, under “30 °C”, the “self-splicing fitness (ln)” value is -2.62 ± 0.42.

UUGCAGCAAUAUUACGUUGG: the “self-splicing fitness (ln)” value is, setting by setting: (30 °C) -2.68 ± 0.15; (37 °C) -2.42 ± 0.18.

Take CUGCAGCAAUAUUACGAUAG: the “self-splicing fitness (ln)” value runs as follows: (30 °C) -1.16 ± 0.11; (37 °C) -0.167 ± 0.12.

In the case of GUUAAGCAAUAUUACGGCCC, the “self-splicing fitness (ln)” value worked out at 0.0722 ± 0.14 (30 °C) and 0.517 ± 0.17 (37 °C).

As to CCUCAGCAAUAUUACGAGCU, the “self-splicing fitness (ln)” value by setting is: (30 °C) -4.22 ± 0.37; (37 °C) -1.9 ± 0.23.

GAGCAGCAAUAUUACGUCUA: the “self-splicing fitness (ln)” value was 0.0729 ± 0.12 (30 °C) and 0.0653 ± 0.13 (37 °C).

Turning to GCACAGCAAUAUUACGACAC, the “self-splicing fitness (ln)” value is -0.345 ± 0.078 (30 °C) and 0.29 ± 0.093 (37 °C).

As for UCCUAGCAAUAUUACGGACG, the “self-splicing fitness (ln)” value is, setting by setting: (30 °C) -3.92 ± 0.4; (37 °C) -2.47 ± 0.39.

Take ACAAAGCAAUAUUACGGGUA: the “self-splicing fitness (ln)” value (30 °C) is -1.86 ± 0.09 and the “self-splicing fitness (ln)” value (37 °C) is -0.94 ± 0.087.

In the case of CAAAAGCAAUAUUACGUUAG, the “self-splicing fitness (ln)” value (30 °C) is -1.57 ± 0.064 and the “self-splicing fitness (ln)” value (37 °C) was -0.632 ± 0.084.

As to GGACAGCAAUAUUACGACAG, the “self-splicing fitness (ln)” value runs as follows: (30 °C) -3.31 ± 0.21; (37 °C) -2.33 ± 0.27.

Take CAUAAGCAAUAUUACGCCCU: the “self-splicing fitness (ln)” value runs as follows: (30 °C) -2.76 ± 0.43; (37 °C) -2.4 ± 0.49.

In the case of UCAGAGCAAUAUUACGUAAU, the “self-splicing fitness (ln)” value reads like this: (30 °C) -2.52 ± 0.25; (37 °C) -1.66 ± 0.3.

Turning to UUGAAGCAAUAUUACGCAUA, the “self-splicing fitness (ln)” value is, setting by setting: (30 °C) -0.461 ± 0.072; (37 °C) 0.189 ± 0.1.

For AAGCAGCAAUAUUACGGUUA, the “self-splicing fitness (ln)” value by setting is: (30 °C) -0.142 ± 0.072; (37 °C) 0.0491 ± 0.087.

As for ACUCAGCAAUAUUACGUAUU, the “self-splicing fitness (ln)” value is, setting by setting: (30 °C) -2.01 ± 0.081; (37 °C) -0.892 ± 0.11.

In the case of CCAUAGCAAUAUUACGUACA, the “self-splicing fitness (ln)” value is, setting by setting: (30 °C) -3.14 ± 0.21; (37 °C) -1.96 ± 0.21.

In the case of GUUUAGCAAUAUUACGCGAG, the “self-splicing fitness (ln)” value reads like this: (30 °C) -1.48 ± 0.17; (37 °C) -0.934 ± 0.16.

Consider AUUUAGCAAUAUUACGCGCG, for which the “self-splicing fitness (ln)” value was -1.28 ± 0.2 (30 °C) and -0.257 ± 0.22 (37 °C).

Consider CCCGAGCAAUAUUACGGGAA, for which the “self-splicing fitness (ln)” value is, setting by setting: (30 °C) -4.33 ± 0.29; (37 °C) -2.39 ± 0.14.

On to AAACAGCAAUAUUACGUACU, for which the “self-splicing fitness (ln)” value was -0.273 ± 0.06 (30 °C) and -0.159 ± 0.073 (37 °C).

Regarding AGCCAGCAAUAUUACGCCUA, the “self-splicing fitness (ln)” value by setting is: (30 °C) -2.14 ± 0.25; (37 °C) -1.07 ± 0.23.

In the case of CAGCAGCAAUAUUACGUAGG, the “self-splicing fitness (ln)” value is, setting by setting: (30 °C) -0.47 ± 0.063; (37 °C) -0.331 ± 0.094.

Consider CGAAAGCAAUAUUACGGUAG, for which the “self-splicing fitness (ln)” value runs as follows: (30 °C) -0.561 ± 0.065; (37 °C) -0.437 ± 0.085.

As for AUAUAGCAAUAUUACGUCAU, the “self-splicing fitness (ln)” value by setting is: (30 °C) -2.43 ± 0.14; (37 °C) -1.15 ± 0.14.

Take CCAAAGCAAUAUUACGAUGA: the “self-splicing fitness (ln)” value was -2.55 ± 0.12 (30 °C) and -1.34 ± 0.09 (37 °C).

As for CAAAAGCAAUAUUACGAUUA, the “self-splicing fitness (ln)” value by setting is: (30 °C) -0.53 ± 0.084; (37 °C) -0.187 ± 0.087.

On to GCUCAGCAAUAUUACGAGAG, for which the “self-splicing fitness (ln)” value by setting is: (30 °C) -1.03 ± 0.14; (37 °C) -0.875 ± 0.14.

For the sequence CAUCAGCAAUAUUACGGCCA, the “self-splicing fitness (ln)” value is -2.63 ± 0.28 (30 °C) and -0.947 ± 0.27 (37 °C).

For UAACAGCAAUAUUACGGACA, the “self-splicing fitness (ln)” value (30 °C) is -0.353 ± 0.085 and the “self-splicing fitness (ln)” value (37 °C) was -0.527 ± 0.1.

As to UGAAAGCAAUAUUACGGCAU, the “self-splicing fitness (ln)” value is -1.43 ± 0.076 (30 °C) and -0.236 ± 0.1 (37 °C).

Take CUCUAGCAAUAUUACGCUCG: the “self-splicing fitness (ln)” value is, setting by setting: (30 °C) -3.05 ± 0.25; (37 °C) -1.68 ± 0.23.

Regarding UGGUAGCAAUAUUACGUUAC, the “self-splicing fitness (ln)” value (30 °C) is -2.42 ± 0.37.

As to CACCAGCAAUAUUACGAACA, the “self-splicing fitness (ln)” value was -3.14 ± 0.17 (30 °C) and -0.953 ± 0.14 (37 °C).

Regarding CAGCAGCAAUAUUACGGGCA, the “self-splicing fitness (ln)” value was -2.11 ± 0.095 (30 °C) and -1.07 ± 0.099 (37 °C).

For the origin of these results see the supplement of paper PMC7877785.
